Test results from article PMC10283433.

How the values were obtained:
[1] = target: NXT007 in the dKiHv14 format (anti-FIXa/FX bispecific humanized IgG4, kappa/lambda) (human); assay: SPR
[2] = target: anti-FX antibodies with the V1 or V2 mutation pair; assay: SPR

| Substance | FcRn binding ability after acid treatment, relative to the initial sample [1] [%] | fold increase in KD against the parent [2] [times] |
| --- | --- | --- |
| recombinant human FcRn (from UniProt P55899 24-365) (receptor) | 80 |  |
| human FX (Enzyme Research Laboratories, HFX 1010) (natural protein) |  | 1.3 to 1.4 |
